We go through six molecules from US20040175720A1 (NEW YORK UNIVERSITY, published 2004).

To fix the notation:
B1: LexA-cTRα LBD (LexA fusion of the ligand binding domain of cTRα) (receptor, UniProt P0A7C2 1-202, looked up)
chain: MKALTARQQEVFDLIRDHISQTGMPPTRAEIAQRLGFRSPNAAEEHLKALARKGVIEIVSGASRGIRLLQEEEEGLPLVGRVAAGEPLLAQQHIEGHYQVDPSLFKPNADFLLRVSGMSMKDIGIMDGDLLAVHKTQDVRNGQVVVARIDDEVTVKRLKKQGNKVELLPENSEFKPIVVDLRQQSFTIEGLAVGVIRNGDWLMDLVLDDSKRVAKRKLIEENRERRRKEEMIKSLQHRPSPSAEEWELIHVVTEAHRSTNAQGSHWKQKRKFLPEDIGQSPMASMPDGDKVDLEAFSEFTKIITPAITRVVDFAKKLPMFSELPCEDQIILLKGCCMEIMSLRAAVRYDPESETLTLSGEMAVKREQLKNGGLGVVSDAIFDLGKSLSAFNLDDTEVALLQAVLLMSSDRTGLICVDKIEKCQETYLLAFEHYINYRKHNIPHFWPKLLMKVTDLRMIGACHASRFLHMKVECPTELFPPLFLEVFEDQEV
notes: domain: LexA DBD;domain: LBD; also called cTRa
B2: LexA-hRARα LBD (LexA fusion of the ligand binding domain of hRARα) (receptor, UniProt P0A7C2 1-202, looked up)
chain: MKALTARQQEVFDLIRDHISQTGMPPTRAEIAQRLGFRSPNAAEEHLKALARKGVIEIVSGASRGIRLLQEEEEGLPLVGRVAAGEPLLAQQHIEGHYQVDPSLFKPNADFLLRVSGMSMKDIGIMDGDLLAVHKTQDVRNGQVVVARIDDEVTVKRLKKQGNKVELLPENSEFKPIVVDLRQQSFTIEGLAVGVIRNGDWLSKESVRNDRNKKKKEVPKPECSESYTLTPEVGELIEKVRKAHQETFPALCQLGKYTTNNSSEQRVSLDIDLWDKFSELSTKCIIKTVEFAKQLPGFTTLTIADQITLLKAACLDILILRICTRYTPEQDTMTFSDGLTLNRTQMHNAGFGPLTDLVFAFANQLLPLEMDDAETGLLSAICLICGDRQDLEQPDRVDMLQEPLLEALKVYVRKRRPSRPHMFPKMLMKITDLRSISAKGAERVITLKMEIPGSMPPLIQEMLENSEGLDTLSGQPGGGGRDGGGLAPPPGSCSPSLSPSSNRSSPATHSP
notes: domain: LexA DBD;domain: LBD
B3: LexA-hPPARα LBD (LexA fusion of the ligand binding domain of hPPARα) (receptor, UniProt P0A7C2 1-202, looked up)
chain: MKALTARQQEVFDLIRDHISQTGMPPTRAEIAQRLGFRSPNAAEEHLKALARKGVIEIVSGASRGIRLLQEEEEGLPLVGRVAAGEPLLAQQHIEGHYQVDPSLFKPNADFLLRVSGMSMKDIGIMDGDLLAVHKTQDVRNGQVVVARIDDEVTVKRLKKQGNKVELLPENSEFKPIVVDLRQQSFTIEGLAVGVIRNGDWLSHNAIRFGRMPRSEKAKLKAEILTCEHDIEDSETADLKSLAKRIYEAYLKNFNMNKVKARVILSGKASNNPPFVIHDMETLCMAEKTLVAKLVANGIQNKEAEVRIFHCCQCTSVETVTELTEFAKAIPGFANLDLNDQVTLLKYGVYEAIFAMLSSVMNKDGMLVAYGNGFITREFLKSLRKPFCDIMEPKFDFAMKFNALELDDSDISLFVAAIICCGDRPGLLNVGHIEKMQEGIVHVLRLHLQSNHPDDIFLFPKLLQKMADLRQLVTEHAQLVQIIKKTESDAALHPLLQEIYRDMY
notes: domain: LexA DBD;domain: LBD
B4: LexA-hGR LBD (LexA fusion of the ligand binding domain of hGR) (receptor, UniProt P0A7C2 1-202, looked up)
chain: MKALTARQQEVFDLIRDHISQTGMPPTRAEIAQRLGFRSPNAAEEHLKALARKGVIEIVSGASRGIRLLQEEEEGLPLVGRVAAGEPLLAQQHIEGHYQVDPSLFKPNADFLLRVSGMSMKDIGIMDGDLLAVHKTQDVRNGQVVVARIDDEVTVKRLKKQGNKVELLPENSEFKPIVVDLRQQSFTIEGLAVGVIRNGDWLGMNLEARKTKKKIKGIQQATTGVSQETSENPGNKTIVPATLPQLTPTLVSLLEVIEPEVLYAGYDSSVPDSTWRIMTTLNMLGGRQVIAAVKWAKAIPGFRNLHLDDQMTLLQYSWMFLMAFALGWRSYRQSSANLLCFAPDLIINEQRMTLPCMYDQCKHMLYVSSELHRLQVSYEEYLCMKTLLLLSSVPKDGLKSQELFDEIRMTYIKELGKAIVKREGNSSQNWQRFYQLTKLLDSMHEVVENLLNYCFQTFLDKTMSIEFPEMLAEIITNQIPKYSNGNIKKLLFHQK
notes: domain: LexA DBD;domain: LBD
B5: LexA-human ERα-LBD (LexA fusion of the ligand binding domain of hERα) (receptor, UniProt P0A7C2 1-202, looked up)
chain: MKALTARQQEVFDLIRDHISQTGMPPTRAEIAQRLGFRSPNAAEEHLKALARKGVIEIVSGASRGIRLLQEEEEGLPLVGRVAAGEPLLAQQHIEGHYQVDPSLFKPNADFLLRVSGMSMKDIGIMDGDLLAVHKTQDVRNGQVVVARIDDEVTVKRLKKQGNKVELLPENSEFKPIVVDLRQQSFTIEGLAVGVIRNGDWLSAGDMRAANLWPSPLMIKRSKKNSLALSLTADQMVSALLDAEPPILYSEYDPTRPFSEASMMGLLTNLADRELVHMINWAKRVPGFVDLTLHDQVHLLECAWLEILMIGLVWRSMEHPGKLLFAPNLLLDRNQGKCVEGMVEIFDMLLATSSRFRMMNLQGEEFVCLKSIILLNSGVYTFLSSTLKSLEEKDHIHRVLDKITDTLIHLMAKAGLTLQQQHQRLAQLLLILSHIRHMSNKGMEHLYSMKCKNVVPLYDLLLEMLDAHRLHAPTSRGGASVEETDQSHLATAGSTSSHSLQKYYITGEAEGFPATV
notes: domain: LexA DBD;domain: LBD; also called hERa; ERa
B6: LexA-hRXRα LBD (LexA fusion of the ligand binding domain of hRXRα) (receptor, UniProt P0A7C2 1-202, looked up)
chain: MKALTARQQEVFDLIRDHISQTGMPPTRAEIAQRLGFRSPNAAEEHLKALARKGVIEIVSGASRGIRLLQEEEEGLPLVGRVAAGEPLLAQQHIEGHYQVDPSLFKPNADFLLRVSGMSMKDIGIMDGDLLAVHKTQDVRNGQVVVARIDDEVTVKRLKKQGNKVELLPENSEFKPIVVDLRQQSFTIEGLAVGVIRNGDWLMGMKREAVQEERQRGKDRNENEVESTSSANEDMPVERILEAELAVEPKTETYVEANMGLNPSSPNDPVTNICQAADKQLFTLVEWAKRIPHFSELPLDDQVILLRAGWNELLIASFSHRSIAVKDGILLATGLHVHRNSAHSAGVGAIFDRVLTELVSKMRDMQMDKTELGCLRAIVLFNPDSKGLSNPAEVEALREKVYASLEAYCKHKYPEQPGRFAKLLLRLPALRSIGLKCLEHLFFFKLIGDTPIDTFLMEMLEAPHQMT
notes: domain: LexA DBD;domain: LBD

The experiment addresses T1, B42-NIF-1 (full-length), B42 activation domain fusion expressed from pJG4-5 in yeast (human, UniProt Q9H4Z2 1-1342).
T1 construct: also called NIF-1 expressed as a B42-fusion
T1 sequence: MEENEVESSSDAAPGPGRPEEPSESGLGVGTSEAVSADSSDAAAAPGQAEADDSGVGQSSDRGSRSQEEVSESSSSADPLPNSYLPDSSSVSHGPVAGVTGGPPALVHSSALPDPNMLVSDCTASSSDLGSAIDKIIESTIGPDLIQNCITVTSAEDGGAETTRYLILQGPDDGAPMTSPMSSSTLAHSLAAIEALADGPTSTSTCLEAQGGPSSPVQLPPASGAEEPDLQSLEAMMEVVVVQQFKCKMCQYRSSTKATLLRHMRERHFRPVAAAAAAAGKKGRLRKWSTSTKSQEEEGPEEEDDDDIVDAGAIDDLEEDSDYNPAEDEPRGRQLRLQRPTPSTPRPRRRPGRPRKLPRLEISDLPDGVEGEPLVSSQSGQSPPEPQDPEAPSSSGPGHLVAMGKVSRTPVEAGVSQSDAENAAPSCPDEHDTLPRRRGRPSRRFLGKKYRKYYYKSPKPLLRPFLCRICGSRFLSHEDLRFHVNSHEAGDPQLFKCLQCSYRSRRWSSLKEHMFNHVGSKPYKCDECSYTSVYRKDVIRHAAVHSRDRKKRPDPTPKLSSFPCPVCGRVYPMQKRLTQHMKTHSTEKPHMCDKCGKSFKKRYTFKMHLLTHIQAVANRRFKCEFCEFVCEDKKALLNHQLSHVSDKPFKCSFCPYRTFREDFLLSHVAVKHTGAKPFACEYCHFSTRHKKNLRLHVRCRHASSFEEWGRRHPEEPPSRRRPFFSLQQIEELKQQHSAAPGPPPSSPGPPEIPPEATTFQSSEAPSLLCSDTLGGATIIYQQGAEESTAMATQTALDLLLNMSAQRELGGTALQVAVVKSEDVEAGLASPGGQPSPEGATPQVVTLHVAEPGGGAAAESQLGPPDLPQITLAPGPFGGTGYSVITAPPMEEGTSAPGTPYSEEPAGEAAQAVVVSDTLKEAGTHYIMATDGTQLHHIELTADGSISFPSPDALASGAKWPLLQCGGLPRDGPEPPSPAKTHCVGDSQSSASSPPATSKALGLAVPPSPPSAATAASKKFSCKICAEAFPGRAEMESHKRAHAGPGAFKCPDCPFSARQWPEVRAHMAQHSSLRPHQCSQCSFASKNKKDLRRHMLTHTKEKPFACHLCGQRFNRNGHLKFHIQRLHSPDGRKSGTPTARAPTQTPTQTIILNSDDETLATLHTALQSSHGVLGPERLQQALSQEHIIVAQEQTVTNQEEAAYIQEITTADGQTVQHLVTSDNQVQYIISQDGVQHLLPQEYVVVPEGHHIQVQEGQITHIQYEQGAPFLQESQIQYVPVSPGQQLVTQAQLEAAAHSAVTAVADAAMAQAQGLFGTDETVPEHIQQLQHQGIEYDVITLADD
Description: yeast two-hybrid, B42-NIF-1 (full-length) against LexA-LBD, β-galactosidase. The method, then:
To examine for this possibility, the interaction of B42-NIF-1 (full-length), conditionally expressed from pJG4-5, was studied with LexA fusions of nuclear receptor LBDs (cTRα, ERa, RXRα, GR, RARα, and PPARα) in yeast, as shown in FIG. 7. In addition, a LexA-fusion of full-length cTRα was also tested against B42-NIF-1 (full-length) and gave similar results as with the cTRα LBD. […] To document that the LexA-LBD fusions were expressed and responded to ligand in yeast, similar studies were carried out with B42-NRC.
Consider B1, for which the binding result is “no binding”.

For the molecule B2, the binding result is listed as “no binding”.

With B3, the binding result was “no binding”.

For the molecule B4, the binding result is “no binding”.

On to B5, for which the binding result is recorded as “no binding”.

As for B6, the binding result was “no binding”.
